Test results taken from patent US20140112915A1 (Novartis, published 2014).
Read-outs that look alike come from different tables or passages of the source.

Experiments:
Recombinant human IL-18 [1] = target: T1, Recombinant human IL-18 (human, UniProt Q14116 37-193); assay: cell-based or functional assay
T1 sequence: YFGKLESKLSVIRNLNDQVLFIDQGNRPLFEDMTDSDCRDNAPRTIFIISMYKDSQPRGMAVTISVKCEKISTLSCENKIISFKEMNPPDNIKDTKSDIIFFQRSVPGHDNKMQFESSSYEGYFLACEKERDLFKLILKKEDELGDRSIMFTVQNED

[2] = target: T2, Recombinant cynomolgus IL-18 (cynomolgus monkey, UniProt Q14116 37-193 (human entry)); assay: cell-based or functional assay
T2 chain: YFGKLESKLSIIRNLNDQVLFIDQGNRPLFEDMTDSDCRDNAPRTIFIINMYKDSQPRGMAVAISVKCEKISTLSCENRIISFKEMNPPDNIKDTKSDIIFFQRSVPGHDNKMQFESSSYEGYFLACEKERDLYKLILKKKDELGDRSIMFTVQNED

Native human IL-18 [3] = target: T3, Native human IL-18 (human, UniProt Q14116 37-193); assay: cell-based or functional assay
T3 sequence: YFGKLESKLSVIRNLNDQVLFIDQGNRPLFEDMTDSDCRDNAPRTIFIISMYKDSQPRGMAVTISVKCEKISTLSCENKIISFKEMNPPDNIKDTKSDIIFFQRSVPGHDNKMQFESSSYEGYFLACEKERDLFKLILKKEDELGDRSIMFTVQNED

Recombinant human IL-18 [4] = target: T1, Recombinant human IL-18; assay: solution equilibrium titration (SET), ECL detection
IL-18/IL-18BP complex = target: T4, IL-18/IL-18BP complex (human, UniProt O95998 31-194, biotinylated in the first ELISA setup, unbiotinylated in the second); assay: ELISA, first set-up: antibody titrated and incubated with the biotinylated human IL-18/rhIL-18BP-Fc complex, captured on NeutrAvidin plate, AP-labelled anti-human F(ab)2, AttoPhos fluorescence [A]
T4 construct: also called biotinylated IL-18/IL18-BP complex; not shown: human IgG1 Fc tag
T4 sequence 1: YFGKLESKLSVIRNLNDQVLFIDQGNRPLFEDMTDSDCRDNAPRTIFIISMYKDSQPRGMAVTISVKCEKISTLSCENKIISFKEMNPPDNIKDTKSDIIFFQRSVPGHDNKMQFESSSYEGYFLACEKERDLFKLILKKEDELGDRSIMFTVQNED
T4 sequence 2: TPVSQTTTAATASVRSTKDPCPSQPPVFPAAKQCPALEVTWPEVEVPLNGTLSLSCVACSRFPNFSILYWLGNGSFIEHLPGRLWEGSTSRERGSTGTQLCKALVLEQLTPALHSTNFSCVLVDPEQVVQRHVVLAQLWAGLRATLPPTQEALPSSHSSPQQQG

Recombinant human IL-18 [5] = target: T1, Recombinant human IL-18; assay: cell-based or functional assay; remark: listed apart in the source
Native human IL-18 [6] = target: T3, Native human IL-18; assay: cell-based or functional assay; remark: listed apart in the source
Recombinant human IL-18 [7] = target: T1, Recombinant human IL-18; assay: cell-based or functional assay; remark: listed apart in the source
Native human IL-18 [8] = target: T3, Native human IL-18; assay: cell-based or functional assay; remark: listed apart in the source
[9] = target: T2, Recombinant cynomolgus IL-18; assay: ratio of SET KD values, cynomolgus against human IL-18
Recombinant human IL-18 [10] = target: T1, Recombinant human IL-18; assay: solution equilibrium titration (SET), ECL detection; human IL-18; unbracketed value, column Hu IL-18
[11] = target: T2, Recombinant cynomolgus IL-18; assay: solution equilibrium titration (SET), ECL detection; value in brackets = cynomolgus IL-18; bracketed value

B1: MOR08775 (antibody, human IgG1, lambda, V domains shown)
VH: QVQLVQSGAEVKKPGSSVKVSCKASGGTFNSYAISWVRQAPGQGLEWMGGIIPIYGTANYAQKFQGRVTITADESTSTAYMELSSLRSEDTAVYYCARAAYHPLVFDNWGQGTLVTVSS
VL: DIVLTQPPSVSGAPGQRVTISCSGSSSNIGNHYVNWYQQLPGTAPKLLIYRNNHRPSGVPDRFSGSKSGTSASLAITGLQSEDEADYYCQSWDYSGFSTVFGGGTKLTVLG
notes: also called MOR8775
- IC50, inhibition of IFN-γ release, KG-1 cells, Hu IL-18 (1 nM) (Recombinant human IL-18 [1]): 68 nM
- IC50, inhibition of IFN-γ release, PBMC, Hu IL-18 (recombinant) (Recombinant human IL-18 [1]): 9.2 nM
- IC50, inhibition of IFN-γ release, KG-1 cells, Cyno IL-18 [2]: 22 nM
- IC50, inhibition of IFN-γ release, PBMC, Native IL-18 (LPS/IL-12) (Native human IL-18 [3]): 0.7 nM
- Kd (Recombinant human IL-18 [4]): 0.065 nM
- binding result (IL-18/IL-18BP complex): no binding (tested: about 800 nM)

B2: MOR9464_N30K (antibody, human IgG1, lambda, L234A L235A, V domains shown)
VH: EVQLVQSGAEVKKPGSSVKVSCKASGGTFKSYAISWVRQAPGQGLEWMGNIIPMTGQTYYAQKFQGRVTITADESTSTAYMELSSLRSEDTAVYYCARAAYHPLVFDNWGQGTLVTVSS
VL: DIVLTQPPSVSGAPGQRVTISCSGSSSNIGNHYVNWYQQLPGTAPKLLIYRNNHRPSGVPDRFSGSKSGTSASLAITGLQSEDEADYYCQSWDYSGFSTVFGGGTKLTVLG
notes: also called MOR09464_N30K
- IC50, inhibition of IFN-γ release, KG-1 cells, Hu IL-18 (1 nM) (Recombinant human IL-18 [1]): 0.36 nM
- IC50, inhibition of IFN-γ release, KG-1 cells, Cyno IL-18 [2]: 4.7 nM
- IC50, inhibition of IFN-γ release, PBMC, Native IL-18 (LPS/IL-12) (Native human IL-18 [3]): 0.2 nM
- IC50, inhibition of IFN-γ release, KG-1 cells, Hu IL-18 (1 nM) (Recombinant human IL-18 [5]): 0.36 nM
- IC50, inhibition of IFN-γ release, PBMC, Native IL-18 (LPS/IL-12) (Native human IL-18 [6]): 0.2 nM
- IC50, inhibition of IFN-γ release, human whole blood, recombinant human IL-18 (7 nM) (Recombinant human IL-18 [7]): 8.62 nM
- IC50, inhibition of IFN-γ release, human whole blood, LPS/IL-12 (native IL-18) (Native human IL-18 [8]): 17.1 nM
- fold weaker than against human IL-18 [9]: 10 fold
- Kd (Recombinant human IL-18 [10]): 2 pM
- Kd [11]: 0.02 nM

B3: MOR08776 (antibody, human IgG1, lambda, V domains shown)
VH: QVQLQESGPGLVKPGETLSLTCTVSGGSISTGSYYWNWIRQAPGKGLEWIGEINHMGITYYNPSLKGRVTISVDTSKNQFSLKLSSVTAEDTAVYYCARTTRYWMSHILAYGMDYWGQGTLVTVSS
VL: DIVLTQPPSVSGAPGQRVTISCSGSSSNIGNHYVSWYQQLPGTAPKLLIYANTKRPSGVPDRFSGSKSGTSASLAITGLQSEDEADYYCSSYDGSQSIVFGGGTKLTVLG
notes: also called MOR8776
- IC50, inhibition of IFN-γ release, KG-1 cells, Hu IL-18 (1 nM) (Recombinant human IL-18 [1]): 18 nM
- IC50, inhibition of IFN-γ release, PBMC, Hu IL-18 (recombinant) (Recombinant human IL-18 [1]): 50.8 nM
- IC50, inhibition of IFN-γ release, PBMC, Native IL-18 (LPS/IL-12) (Native human IL-18 [3]): 5.9 nM
- Kd (Recombinant human IL-18 [4]): 0.038 nM
- binding result (IL-18/IL-18BP complex): no binding (tested: about 800 nM)
